Molecular target: T1, CHRD_VWC2 (Mus musculus (Mouse), UniProt Q9Z0E2)
T1 chain: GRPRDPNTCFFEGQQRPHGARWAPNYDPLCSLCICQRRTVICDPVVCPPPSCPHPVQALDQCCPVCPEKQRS
Test: SPR, chordin VWC immobilised

- Kd: 145 nM
B1: CV2 (protein)
chain: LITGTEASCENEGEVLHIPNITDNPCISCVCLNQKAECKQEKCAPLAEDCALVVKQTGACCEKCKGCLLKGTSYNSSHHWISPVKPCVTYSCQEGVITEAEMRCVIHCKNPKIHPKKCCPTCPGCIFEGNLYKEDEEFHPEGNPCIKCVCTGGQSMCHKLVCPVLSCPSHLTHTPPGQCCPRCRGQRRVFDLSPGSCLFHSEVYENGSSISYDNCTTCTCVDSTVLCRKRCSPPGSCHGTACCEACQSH

— paper PMC2944808 (2010)
